Test results reported in the supplement of paper PMC9170038.

Test system: MS2 coat protein
Assay: apparent KD of MS2 coat protein; higher = weaker reporter binding
Details: Eterna round: R107
In short: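 Designed RNA switches, transcribed on-chip from Illumina sequencing clusters, were titrated with SNAP-549-labelled MS2 coat protein from 0.7 or 1.5 nM to 3 µM in twofold steps. The solution was 100 mM Tris-HCl pH 7.5, 80 mM KCl, 4 mM MgCl2, with constant ligand or without it. Apparent KD is the median over each design's normalised cluster binding-curve fits.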

[1] = input ligand: theophylline 20 uM
[2] = input ligand: theophylline 2 mM
[3] = input ligand: tryptophan 2.4 mM

Sequence | apparent KD of MS2 coat protein (input ligand: arginine 13.2 mM) [nM] | apparent KD of MS2 coat protein [1] [nM] | apparent KD of MS2 coat protein [2] [nM] | apparent KD of MS2 coat protein (input ligand: none) [nM] | apparent KD of MS2 coat protein [3] [nM]
GGAGCUACGUCGGCCGCCACUAGCGGAUAUUACGUGUACAUGAGGAUCACCCAUGUAAUACGGUUUAGGACCGGGACGUAGCUCC [Lizard] | 15.6 | 22.4 | 20.6 |  | 
AAGGACAUGAGGAUCACCCAUGUAGAGGAGCGAGGACCGGUACGGCCGCCACUCGGUGACAUUCGAUAAUGCCGAAUAAGACAUC [theeternabot_sameState_MS2_Trp_A_47] | 26.8 | 33.2 | 24.6 |  | 
UUACCGUAAGGUAUACCGGUCCACAAUAAUCGAGGACCGGUACGGCCGCCACUCGAUGUGUGAUCACAUGAGGAUCACCCAUGUA [Tryptophan A 20] | 99.4 | 460 | 562 |  | 
CACGGCCAUGAGGAUCACCCAUGGAAUAAUCGAGGACCGGUACGGCCGCCACUCGUGGACCGUGACCUGUACGAAAAGUGCAGGA | 20.8 | 31.7 | 26.9 | 26.5 | 10
GCACGACAUGAGGAUCACCCAUGUGCAGAUACCAGUAAUGUAUGUUACCCUUGGCAGCUGAGUAGGUCUGGAGGGCUAUAGGUAA [Same State Theophylline A GF12] | 10.6 | 18 |  |  | 13.7
AUAAGUAAUGUUACGUGUUUAAUUGCAGAUACCAGACUAUACGUUGUCCCUUGGCAGCUGAAUUACAUGAGGAUCACCCAUGUUG [JR_ExcTheophyA_Sub005] | 19.4 | 28.5 |  |  | 25.7
UUGGGUUUGUGAAGGAGCGGGAAAGUUUUAUAGUGAAUCCUAACAUGAGGAUCACCCAUGUCCCAGGUAGGUCGCGCGGGUUUGG [12.Q] | 240 | 115 | 144 | 134 | 80.8
AGUUCCAGGUCGGCCGCCACUGGCGUGGCCGGUCCUCGGACUUACAUGAGGAUCACCCAUGUGAACAGGACCGGGACCGCAUGGG [Exclusion Tryptophan B GF 25] | 30 | 46 | 48.4 |  | 
UUGGGUUUGUGAAGGAGCGGGAAAGUUAUAUAGUUAAUCCUAACAUGAGGAUCACCCAUGUCCCAGGUAGGUCGCGCGGGUUUGG [12.P] | 32.7 | 60.6 | 55 | 47.5 | 47.3
AAUCGUAAGGCGGCCGCCACUACACAUGAGGAUCACCCAUGUCUCGCAGGCUUGCGUUGGGUUAGUAGGACCGGGCCAGUAAUAA [Exclusion - Tryptophan B (Freestyle 15)] | 25.8 | 43.2 | 37 | 32.1 | 34.5
GCACGGGCGAUCGGCACUUUUACUAAUAUACGAGGACCGGUACGGCCGCCACUCGAGCUAAGACAUGAGGAUCACCCAUGUAACG [theeternabot_exclusion_MS2_Trp_A_41] | 22 | 30 | 30.4 |  | 
ACAUGAGGAUCACCCAUGUCACGGCACGAUACCAGCUGAUGCGGUGGCCCUUGGCAGCGUGACGUUUGGUCCCGCGGAUGACACG [qsmullin] | 86.4 | 280 |  |  | 240
CCGCACAUGAGGAUCACCCAUGUCAGGGAUACCAGCCCAGACAUGGGCCCUUGGCAGCUUUGUAGCUGACGAAAGUCAGCAGCGG [Omei Theo A SS A v2] | 17.6 | 62.3 | 101 | 33.6 | 59.2
UGGGUUGGACCAGGAAAUGGUCUGACUCACCGAGGACCGGUACGGCCGCCACUCGUAGGUACAUGAGGAUCACCCAUGUCGGUGG [#1 Same State - Tryptophan A Attempt #11 (HarryS)] | 91.7 | 34.2 | 36.2 | 23.6 | 68.8
AGAAAGAAACAAAACUCAAGGAGAACCGAAGGAGCGGCGAAAGAGCCAGGUAGGUCGCGGUCCUCAACAUGAGGAUCACCCAUGU | 61.6 | 83.5 | 186 | 104 | 96.6
GGGACACCGGGAAGGAGCGCAUCCAAACCACACAUGAGGAUCACCCAUGUAUAAAUAUGCAUGCAGGUAGGUCGCCCGAUGUCUC [Anrearradi] | 60.9 | 121 | 120 | 90.7 | 110
CGAAUACCAAUUGAUACCAGCAUGUUAACAUGAGGAUCACCCAUGUUAAGGAUAACAUAAUGCCCUUGGCAGCAACGUAAAUUCG [Aa] | 19.2 | 22.9 |  |  | 19.6
ACAAGUCCUCAUGAUACCAGCGAUGAGACAAAGUCUCAACAUGAGGAUCACCCAUGUACUCGCCCUUGGCAGCAUACGGUUUUUG [Onedxequla] | 139 | 373 |  |  | 573

Sequence | apparent KD of MS2 coat protein (input ligand: arginine 13.2 mM) [nM] | apparent KD of MS2 coat protein [1] [nM] | apparent KD of MS2 coat protein [2] [nM] | apparent KD of MS2 coat protein (input ligand: none) [nM] | apparent KD of MS2 coat protein [3] [nM]
GCCGCGGCCGCGAUACACAUGGGUGUGUAACGAGGACCGGUACGGCCGCCACUCGAGAUGGCACAUGAGGAUCACCCAUGUGUGC [Exclusion Tryp A GF16] | 17.1 | 60.2 | 44.5 | 24.1 | 29.9
UAUAUAUAGGCGGCCGCCACUGAUUUUCAUAUAUAUAUAACAUGAGGAUCACCCAUGUAGAUAUACAGGACCGGGCCUAUAUAUA [aaaA] | 17 | 16.5 | 14.7 | 16.1 | 13.3
CACAUGAGGAUCACCCAUGUCUGAACUGAAGGAGCGCUAAAUAAGGCAGGUAGGUCGCGGAAUCUUGUGUGCAUAUGCACACGGG [9.T] | 18.2 | 28.5 | 31.2 | 20.5 | 25
AUCGUACCUCAUGAUACCAGCAUGUGAUCAUAACAUGAGGAUCACCCAUGUAAUCAGUGAUGCCCUUGGCAGCGUAGUCGAUACA [Same State - Theophylline B (Freestyle 8)] | 76.3 | 161 |  |  | 123
CAGAGCUACCGGGAUACCAGAAAUGGUAUUCCUUAAUUUCUUACAUGAGGAUCACCCAUGUUCCCUUGGCAGCUUGGUAGCUCUG [ETHB #8] | 48.6 | 107 |  |  | 83.7
CAGGUCAGGGCGGCCGCCACUGUGGCUACGGUACAUGAGGAUCACCCAUGUUUGUGGUUGAUCUACAGGACCGGGCCCUAACACG [Beabe] | 1080 | 214 | 757 | 430 | 126
CCCAACAGUGAUGCCGGUGUUGGUGGUGAUACCAGCGUCUUAUGGCGCCCUUGGCAGCACCAACAUGAGGAUCACCCAUGUGAAA [Beenerveor] | 19.8 | 113 |  |  | 36.9
AUGUCAUUGGUGUAGCUGUGAAGUGGCGAUACCAGCGUGGAAACACGCCCUUGGCAGCGCCAAAACAUGAGGAUCACCCAUGUUA [#23 Exclusion-TheophyllineA] | 19 | 56.3 |  |  | 22.9
GUUAUAUCAAAAGAUGUAACAGUGGGUGAACGAGGACCGGUACGGCCGCCACUCGGACAUGAGGAUCACCCAUGUCCAUGUGAAA [AstrosExyTryA#14] | 15.8 | 17.5 | 18.7 |  | 
GGGAGAUGAAAAGAUUGAGCUAAAACAGAAGGAGCGUGAAUUAACACAGGUAGGUCGCUGACAACAUGAGGAUCACCCAUGUAUU [Same State Arginine A GF4] | 24.9 | 30.4 | 26.5 | 19.6 | 21.4
GAUAUAUACUCGGCCGCCACUGAGAGAGUCAUGUAAACAUGAGGAUCACCCAUGUAAUAUAUAUACAGGACCGGGAGUAUAUUAA [4.C] | 16 | 16.1 | 14 |  | 
GGGUACAUCGCGGCCGCCACUUGUGUAAAUACAUGAGGAUCACCCAUGUCGAUGGAGACAUCGGGAAGGACCGGGUGAUGUACCG | 218 | 802 | 1200 | 342 | 650
CGGCCCUCACUUGAGGAACACCCAAGUGAUACCAGCCUGGAAACAGGCCCUUGGCAGCACUAGGUCAUCAAAGAUGACCAAGCCG [TheoAX 29 #OpenEnded #AlternativeMS2] | 17.7 | 42.8 | 373 | 23.8 | 23.1
GGUUGGUGUAGAGAUAUAUUGAUUACUGAAGGAGCGGGACGAAACCCAGGUAGGUCGCAGAGAUCCACAUGAGGAUCACCCAUGU [!0.M] | 31.6 | 46.6 | 61.4 | 46.1 | 33.4
GGUAGACGGACGGCCGCCACUCACAUGAGGAUCACCCAUGUAUAGUUGGUAAUCUGGGUUCAGGAGAGGACCGGGUCCUUGUCAG [theeternabot_exclusion_MS2_Trp_B_43] | 34.3 | 23.2 | 24.3 | 18.4 | 23.3
CAUGACAUGAGGAUCACCCAUGUAUCCAGUCGAGGACCGGUACGGCCGCCACUCGGUGCCUUCAAAUUUACAGACAGGUGACAGG [theeternabot_sameState_MS2_Trp_A_30] | 26.2 | 42.9 | 39.6 |  | 
AAAAGAGGUGGAAGGAGCGGGAGACAUGAGGAUCACCCAUGUGAUGUGACGAAAGGGUCAGCCCAGGUAGGUCGCCAUGUCGAAA [yuyymullin] | 54.6 | 76.2 | 134 | 62.9 | 27.3
AUUGCGAGUGAGUCGUGUAACGAUUCAGAUACCAGGCAUUUCGUUGUCCCUUGGCAGCUGUCUUACAUGAGGAUCACCCAUGUUA [#29 Exclusion-TheophyllineA] | 23.8 | 54.8 |  |  | 56.3
